This is an account of results in PMC12140327, “Structural and Biochemical Characterization of a Widespread Enterobacterial Peroxidase Encapsulin” (Advanced Science, 2025).

“And” between values parts separate entries of the source, which are not always exact repeats. Identical values can stand only once.

Assay [1] concerns the target T1, EncDyP (Escherichia coli, UniProt A0A5C9AJY8).
T1 construct: gene FPI65_30880; DyP-loaded T=1 encapsulin shell (60 Enc, about 3-5 DyP hexamers per shell); staggered co-expression in E. coli BL21(DE3), DyP in pCDFDuet-1, Enc in pBAD/HisA; no tag stated; DyP C-terminal residue K348; with Type 1 encapsulin shell protein
In words: ABTS oxidation at […] nm, plate reader. Particulars: H2O2 as co-substrate; 50 mM phosphate citrate pH 4.6-7.6; room temperature. The assay is classed as biochemical.

The target in assay [2] is encapsulin shell protein (Enc) of the enterobacterial DyP encapsulin operon (E. coli). In words: cryo-EM structure; purified EncDyP from staggered co-expression, 2.8 mg/mL in 150 mM NaCl, 20 mM Tris pH 7.5; icosahedral symmetry imposed.
The target in assay [3] is T1, EncDyP. Description: in-gel peroxidase activity stain (native PAGE, ferricyanide). The assay is classed as biochemical. The settings on record: H2O2 0.003%; DAB in Tris-saline pH 7.5.
Assay [4] addresses encapsulin shell protein (Enc) of the enterobacterial DyP encapsulin operon (E. coli). Description: cryo-EM 2D class averages after shell subtraction; purified EncDyP from staggered expression of DyP (PT7) and Enc (PBAD).
For assay [5] the target is unchanged. In words: cryo-EM 2D class averages after shell subtraction; purified EncDyP from a two-gene operon under the T7 promoter.
The target in assay [6] is free His6-tagged Dye-decolorizing peroxidase (DyP). Description: cryo-EM structure; purified free DyP, 0.5 mg/mL in 150 mM NaCl, 20 mM Tris pH 7.5; D3 symmetry imposed.
The target is the same in assay [7]. Description: SEC; Superdex S-200, 150 mM NaCl, 20 mM Tris pH 7.5; heme followed by absorption at 404 nm. On the technique in general: Size exclusion chromatography separates by hydrodynamic size, large species first.

As to `CCn1c(=NN=c2sc3cc(S(=O)(=O)O)ccc3n2CC)sc2cc(S(=O)(=O)O)ccc21` [ABTS], the “ABTS oxidation at 420 nm, plate reader” value at EncDyP [1] is “Peroxidase activity increased at a comparable rate for both free and encapsulated DyP”.

With “encapsulin shell protein (Enc) of the enterobacterial DyP encapsulin operon (natural protein)”, the stoichiometry N (usually a count of units in the complex or per binding partner) in assay [2] is 60.

With `Nc1ccc(-c2ccc(N)c(N)c2)cc1N` [DAB], on EncDyP [3], the “in-gel peroxidase activity stain (native PAGE, ferricyanide)” value is “in‐gel peroxidase activity staining using ferricyanide which confirmed the encapsulation of catalytically active DyP”.

With “Dye-decolorizing peroxidase (DyP) cargo, co-expressed with Enc and encapsulated (enzyme)”, the DyP hexamers per shell (DyP hexamers per shell) in assay [4] is 3 and 5. Moreover, the DyP hexamers per shell (hexamer per shell) in assay [5] was below 1.

In the case of “free His6-tagged Dye-decolorizing peroxidase (DyP) (enzyme)”, the stoichiometry N in assay [6] and in assay [7] was 6 in each case.
